For 12 sequences, Kd results are on record in patent publication US6177557.

The target of one series is thrombin (alpha) (human) (UniProt P00734+P00734). Briefly: filter.
Series [1] concerns the target basic fibroblast growth factor (bFGF) (UniProt P09038). Description: filter.
Where [2] appears, read: bulk pool, text also says after 12 rounds, apparently unselected.

pKd: −log10 of the molar value.

Sequence of basic fibroblast growth factor (bFGF) (P09038 135-288): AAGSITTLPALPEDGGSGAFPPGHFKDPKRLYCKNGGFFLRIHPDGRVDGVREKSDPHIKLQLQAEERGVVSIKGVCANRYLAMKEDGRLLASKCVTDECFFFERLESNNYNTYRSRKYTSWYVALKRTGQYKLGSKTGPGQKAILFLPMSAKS

In the series with thrombin (alpha) (human) (pool after 12 rounds), “AGATGCCTGTCGAGCATGCTNGTAGCTAAACTGCTTTGTCGACGGG [30N DNA pool after SELEX]” gave a pKd of 8.10.

The sequence “AGATGCCTGTCGAGCATGCTNGTAGCTAAACTGCTTTGTCGACGGG [60N DNA pool after SELEX]” showed a pKd in the series with thrombin (alpha) (human) (pool after 12 rounds) of 8.10.

Consider “AGATGCCTGTCGAGCATGCTNGTAGCTAAACTGCTTTGTCGACGGG [bulk 30N DNA]”, for which the negative logarithm of the Kd (pKd) with thrombin (alpha) (human) (setting [2]) is 5.10.

Consider “AGATGCCTGTCGAGCATGCTNGTAGCTAAACTGCTTTGTCGACGGG [bulk 60N DNA]”, for which the pKd in the series with thrombin (alpha) (human) (setting [2]) was 5.30.

“GGGAGACAAGAAUAACGCUCAANNNNNNNNNNNNNNNNNNNNNNNNNNNNNNUUCGACAGGAGGCUCACAACAGGC [2'-NH2 starting random RNA A]”: in series [1] (2'-NH2 pyrimidines, unselected pool, +/-11), the pKd is 7.19.

For “GGGAGAUGCCUGUCGAGCAUGCUGNNNNNNNNNNNNNNNNNNNNNNNNNNNNNNGUAGCUAAACAGCUUUGUCGACGGG [random RNA B (unmodified)]”, in series [1] (unselected pool, PBS, 37 C), the pKd is 6.25.

Consider “GGGAGCUCAGAAUAAACGCUCAANNNNNNNNNNNNNNNNNNNNNNNNNNNNNNUUCGACAUGAGGCCCGGAUCCGGC [random RNA A (unmodified)]”, for which, in series [1] (unselected pool, PBS, 37 C), the pKd was 6.52.

For the sequence “GGGAGGACGATGCGGGGGGCTATGCGATACAGTCGCGNTANGCTAGGCGCAGACGAGCGGGA [m26]”, the pKd in series [1] (PBS) is 8.80.

As for “GGGAGGACGATGCGGNCAGACGACGACGGGGA [DNA SELEX pool Experiment 3 round 10]”, the pKd in series [1] (round 10 pool) was 8.60.

Consider “GGGAGGACGATGCGGNCAGACGACGACGGGGA [DNA SELEX pool Experiment 3 round 11]”, for which the pKd in series [1] (round 11 pool) was 8.40.

As for “GGGAGGACGATGCGGNCAGACGACGACGGGGA [DNA random pool 30N7.1PS (round 0)]”, the pKd in series [1] (round 0 pool) is 6.52.

Sequence “GGGAGGACGAUGCGGNNNNNNNNNNNNNNNNNNNNNNNNNNNNNNNNNNNNNNNNNNNNNNNNNNCAGACGACUCGCCCGA [2'-NH2 starting random RNA B]” gave a pKd in series [1] (2'-NH2 pyrimidines, unselected pool, +/-140) of 6.62.
